The values below come from publication PMC7265302 (Nature Communications, 2020).

This assay has as its target MavC (residues 1–385, [change]) (Legionella pneumophila, UniProt Q5ZTL4 1-385). Description: crystal structure. The note with it: both partners purified.

B1: UBE2N (K94A), the UBE2N moiety of the conjugated UBE2N~Ub (enzyme)
chain: MAGLPRRIIKETQRLLAEPVPGIKAEPDESNARYFHVVIAGPQDSPFEGGTFKLELFLPEEYPMAAPKVRFMTKIYHPNVDKLGRICLDILKDAWSPALQIRTVLLSIQALLSAPNPDDPLANDVAEQWKTNEAQAIETARAWTRLYAMNNI
notes: UBE2N, human E2 enzyme
Regarding B1, the binding result is on record as “binds”.
